Assay results as given in patent US6686450B1, “Immunosuppressive agents that inhibit calcineurin function and uses of these agents” (Massachusetts Institute of Technology, priority 1998, dated 2004).

Key:
Assay type in all cases: cell-based
[1] = molecular target: T1, interaction between Cabin 1-14 and full length calcineurin β2 (H160N) (Homo sapiens, UniProt P16298, H160N); test: mammalian two-hybrid assay in Jurkat T cells (luciferase reporter); conditions: Jurkat T cells stimulated with PMA and ionomycin
T1 construct: expressed in transfected cells; host or cells: Jurkat T cells
From the text: (§1) A mammalian two-hybrid system was established in Jurkat T cells by fusing calcineurin with the Gal4 DNA binding domain and Cabin 1-14 with the VP16 activation domain (Hsu et al., Proc. Natl. Acid Sci. USA 91:3181-3185 (1994)). The fusion plasmids for mammalian two-hybrid assays were constructed as follows: The cDNAs of calcineurin Aβ2 wild type and H160N mutant were fused to the GAL4 DB in the pM vector (obtained from Clontech, Palo Alto, Calif.) (pMCNβ2 and PMCNβ2 (H160N), and the cDNA of Cabin 1-14 was fused to the VP16 AD in the pVP16 vector (pVPCabin 1-14). Jurkat T cells were transfected with 5 μg of pMCβ2 or pMCβ2 (H160N), 5 μg of pVPCabin 1-14, 1 μg of pCMV-βGal, and 2 μg of pg5Luc, a luciferase reporter plasmid containing GAL4 promoter, by electroporation (960 μF, 250V). After 48 hr, cells were stimulated with 40 nM PMA and 2.5 μM ionomycin, either alone or in combination, for 6 hr before luciferase activity was measured for each sample. The luciferase reporter gene assay reagents were obtained from Promega, Madison, Wis., and the assay was performed per manufacturer's instructions. […] Where appropriate, the transfection efficiency was measured by co-transfecting 2 μg of CMV-driven β-galactosidase expression vector and measuring enzymatic β-galactosidase activity (Ausubel et al., Current Protocols in Molecular Biology (John Wiley & Sons, Inc., New York, 1994)).

[2] = molecular target: T2, interaction between Cabin 1-14 and wild type calcineurin β2 (Homo sapiens, UniProt P16298); test: as above; conditions: Jurkat T cells stimulated with PMA and ionomycin
T2 construct: expressed in transfected cells; host or cells: Jurkat T cells
From the text: as §1

[3] = molecular target: T3, wild type full-length calcineurin (Homo sapiens, UniProt P16298); test: co-immunoprecipitation of Cabin 1-14 and calcineurin from Jurkat T cells; conditions: PMA, ionomycin or both for 3 hrs
T3 construct: expressed in transfected cells; host or cells: Jurkat T cells
From the text: In the mammalian two-hybrid system, the interaction between full-length calcineurin and Cabin 1-14 required ionomycin, which is consistent with the activation of full-length calcineurin by calcium and calmodulin. Unexpectedly, this interaction also required PMA (see FIG. 3C). Since PMA is known to activate PKC, the effect of a PKC-specific inhibitor, bisindolylmaleimide (Toullec et a., J. Biol. Chem. 266:15771-15781 (1991)), was examined on the PMA/ionomycin-stimulated interaction between Cabin 1-14 and calcineurin. […] In addition to the mammalian two-hybrid system, the interaction of Cabin 1-14 and the wild type full-length calcineurin was also confirmed by co-immunoprecipitation (See FIG. 3E). […] Jurkat T cells transfected with pSG-HACNAβ2 and pSG-Cabin 1-14 were stimulated with PMA, ionomycin or both for 3 hrs. The cells were lysed in a lysis buffer (20 mM TrisHCl, pH 7.4, 0.1M NaCl, 1% Triton X-100, 0.5% NP-40 and 0.5 mM PMSF). Cell lysates thus prepared were incubated with anti-Cabin 1 polyclonal antibodies and protein A/G agarose (Santa Cruz) for 2 hr., washed with lysis buffer and boiled in SDS sample buffer. The samples were subjected to 10% SDS-PAGE, transferred to nitrocellulose which was probed with anti-HA monoclonal antibodies and developed with ECL reagents (Amersham, Arlington Heights, Ill.). […]

IL-2 promoter = IL-2 promoter luciferase reporter gene assay in Jurkat T cells; conditions: PMA and ionomycin
[4] = system: AP-1 binding sites derived from the IL-2 promoter; test: AP-1 luciferase reporter gene assay in Jurkat T cells; conditions: coexpression
[5] = system: ARRE (Oct1/AP-1) binding sites derived from the IL-2 promoter; test: ARRE (Oct1/AP-1) luciferase reporter gene assay in Jurkat T cells; conditions: coexpression
[6] = system: NF-AT binding sites derived from the IL-2 promoter; test: NF-AT luciferase reporter gene assay in Jurkat T cells; conditions: coexpression
[7] = system: NF-κB binding sites derived from the IL-2 promoter; test: NF-κB luciferase reporter gene assay in Jurkat T cells; conditions: coexpression
[8] = system: calcineurin phosphatase activity; test: calcineurin-mediated dephosphorylation of ΔNF-AT1 in Jurkat T cells (Western blot)
From the text: To determine if the inhibition of IL-2 promoter by Cabin1-14 is mediated through the inhibition of calcineurin phosphatase activity in vivo, the effect of Cabin 1-14 on the calcineurin-mediated dephosphorylation of the N-terminal fragment of NF-ATI (ΔNF-AT1), upon treatment with ionomycin and PMA, was examined. Jurkat T cells were transfected with expression vectors for Cabin 1-14 (pSGCabin 1-14) and for HA-epitope tagged, truncated NF-AT1 (1-460) fused to green fluorescent protein (pSG-ΔNF-AT1 (1-460) by electroporation as described above. After 48 hrs, cells were treated with PMA and ionomycin, either alone or in combination, for another 1 hr. Whole-cell lysates were prepared and subjected to 8% SDS-polyacrylamide gel electrophoresis, transferred to nitrocellulose membrane (Schleicher & Schuell, New Hampshire), probed with anti-HA epitope monoclonal antibody, and developed with ECL reagents (Amersham, Arlington Heights, Ill.).

T3 sequence (P63098 2-170 partner limits assumed, other chains not shown): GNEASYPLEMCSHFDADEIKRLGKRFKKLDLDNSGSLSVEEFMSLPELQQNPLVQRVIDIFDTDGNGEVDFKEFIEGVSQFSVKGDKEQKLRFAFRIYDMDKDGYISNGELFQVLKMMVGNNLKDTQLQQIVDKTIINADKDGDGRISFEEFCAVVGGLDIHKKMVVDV

interaction with full length calcineurin β2 (H160N) mutant [1]: strong interaction
interaction with wild type calcineurin relative to the mutant enzyme [2]: several fold weaker
B1: Cabin 1-14: C-terminal fragment of Cabin 1 polypeptide, SEQ ID NO:5 (protein, listed as Homo sapiens)
chain: KFPPEITVTPPTPTLLSPKGSISEETKQKLKSAILSAQSAANVRKESLCQPALEVLETSSQESSLESETDEDDDYMDI
coprecipitation with wild type calcineurin [3]: coprecipitated only upon stimulation of Jurkat T cells with both PMA and ionomycin
coprecipitation with wild type calcineurin ([3]; listed as Cabin1-14): dependent on both PKC and calcium stimulation
effect on IL-2 reporter gene activation (IL-2 promoter): potently inhibited
effect on IL-2 reporter gene activation (IL-2 promoter; listed as Cabin1-14): inhibit
effect on AP-1 reporter gene [4]: inhibited
effect on AP-1 reporter gene ([4]; listed as Cabin1-14): inhibits
effect on ARRE (Oct1/AP-1) reporter gene [5]: inhibited
effect on ARRE (Oct1/AP-1) reporter gene ([5]; listed as Cabin1-14): inhibits
effect on NF-AT reporter gene [6]: inhibited
effect on NF-AT reporter gene ([6]; listed as Cabin1-14): inhibits
effect on NF-κB reporter gene [7]: inhibited
effect on NF-κB reporter gene ([7]; listed as Cabin1-14): inhibits
inhibition of ΔNF-AT1 dephosphorylation in the presence of PMA versus in its absence ([8]; ionomycin with PMA versus without): larger extent
effect on dephosphorylation of ΔNF-AT1 ([8]; overexpression, ionomycin in the presence or absence of PMA): inhibited
